The values below come from patent publication US20200040057A1 (IMMATICS BIOTECHNOLOGIES, published 2020).

Sequences and labels used below:
B1: DDX5-001 (YLLPAIVHI from DDX5) (peptide)
peptide: YLLPAIVHI
notes: Negative control peptide for stimulations; also called 447

The first test concerns the target HLA-B*07 (human). Put plainly: UV peptide exchange ELISA; ++ = yield >20%. Background: An ELISA detects its analyte on a solid surface through an enzyme-linked reagent.
With TDTPSTTPTTI, the peptide exchange yield was 20 to 50%.

In turn, IPVSHPVLTF showed a peptide exchange yield of 20 to 50%. EPNPVEEIF had a peptide exchange yield of 20 to 50%. In the case of LPLLAGTLLL, the peptide exchange yield lay within 20 to 50%. The same measure, in the same setting: next, VIINNPISL: 20 to 50%.

Molecule ASKILETSL registered a peptide exchange yield of 20 to 50%. TPTRPLPSA yielded a peptide exchange yield of 20 to 50%. MPPLLIVAF displayed a peptide exchange yield of 20 to 50%.

In the case of FTVSSSSAM, the peptide exchange yield was 20 to 50%. In turn, AVSSHHNVI registered a peptide exchange yield of 20 to 50%.

VPAHLVAA registered a peptide exchange yield of 20 to 50%. For LPPHIFAI, the peptide exchange yield was in the range of 20 to 50%. FLIPRAGWLAGL had a peptide exchange yield of 20 to 50%. Regarding APAAPAAVPS, the peptide exchange yield lay in the range of 20 to 50%. As to AAHEFGHVL, the peptide exchange yield was in the range of 20 to 50%. On to RPSGTAGAALLA, for which the peptide exchange yield lay within 20 to 50%. SVIGPNSRL had a peptide exchange yield of 20 to 50%.

Regarding KIIASGNHL, the peptide exchange yield lay in the range of 20 to 50%. On the same count and under the same terms, next, MARTGGMVVI: 20 to 50%.

KAHVRIEL: the peptide exchange yield lay within 20 to 50%. For the molecule HAAASFETL, the peptide exchange yield was 20 to 50%. The molecule ALLLRGVTL gave a peptide exchange yield of 20 to 50%.

For SVPVATVEL, the peptide exchange yield is 20 to 50%. Same read-out and setting: the figure for IPENRVVSY is 20 to 50%; for SQRPPATSQA it is 20 to 50%; for IAYPSLREAAL it is 20 to 50%. Same read-out and setting: the figure for LPMPAITWY is 20 to 50%; for SPFWIHQA it is 20 to 50%; for EPLSVTASY it is 20 to 50%. As to LPASAEPKGTM, the peptide exchange yield lay in the range of 20 to 50%. KPSAVKDSIY: the peptide exchange yield is 20 to 50%. On to IPVAIKEL, for which the peptide exchange yield was 20 to 50%. In the case of MPEADLKRIF, the peptide exchange yield lay in the range of 20 to 50%. With IPFADVKSF, the peptide exchange yield lay within 20 to 50%. Same read-out and setting: the figure for TVYGEPRKL is 20 to 50%; for SPLIGDFPAF it is 20 to 50%; for IALMKLAGPL it is 20 to 50%. The molecule KPRGPIDI gave a peptide exchange yield of 20 to 50%. Consider MALSVLRLAL, for which the peptide exchange yield was in the range of 20 to 50%.

The target in the next test is HLA-A*02:01 (human). Briefly: control peptide-MHC complex on beads, in vitro T-cell priming. The procedure: 800.000 beads/200 μl were coated in 96-well plates in the presence of 4×12.5 ng different biotin-pMHC, washed and 600 ng biotin anti-CD28 were added subsequently in a volume of 200 μl. Stimulations were initiated in 96-well plates by co-incubating 1×10⁶ CD8+ T cells with 2×10⁵ washed coated beads in 200 μl TCM supplemented with 5 ng/ml IL-12 (PromoCell) for 3 days at 37° C. Half of the medium was then exchanged by fresh TCM supplemented with 80 U/ml IL-2 and incubating was continued for four days at 37° C. This stimulation cycle was performed for a total of three times. […] Finally, multimeric analyses were performed by staining the cells with Live/dead near IR dye (Invitrogen, Karlsruhe, Germany), CD8-FITC antibody clone SK1 (BD, Heidelberg, Germany) and fluorescent pMHC multimers. For analysis, a BD LSRII SORP cytometer equipped with appropriate lasers and filters was used. Peptide specific cells were calculated as percentage of total CD8+ cells. Evaluation of multimeric analysis was done using the FlowJo software (Tree Star, Oregon, USA). In vitro priming of specific multimer+CD8+ lymphocytes was detected by comparing to negative control stimulations.
In the case of B1, the binding result was “binds”.

The target of another test is HLA-B*07 (human). Briefly: UV peptide exchange ELISA; + = yield >10%.
Turning to MPREDAHF, the peptide exchange yield lay within 10 to 20%.

For the molecule VPLPAGGGTVLT, the peptide exchange yield fell in the range of 10 to 20%.

Consider IPFSVDEI, for which the peptide exchange yield lay in the range of 10 to 20%.

Turning to SAAARALLP, the peptide exchange yield was 10 to 20%. For LPLQQYKLV, the peptide exchange yield lay in the range of 10 to 20%. Take MLKTTLTAF: the peptide exchange yield is 10 to 20%. Regarding LPKPDLPQLI, the peptide exchange yield fell in the range of 10 to 20%. As for LPLKFFPII, the peptide exchange yield lay in the range of 10 to 20%. Same read-out and setting: next, IPLEIQKL: 10 to 20%. In the case of KATEYVHSL, the peptide exchange yield is 10 to 20%. For the molecule AQNPAGTAL, the peptide exchange yield is 10 to 20%.

In the case of KPGLPGLK, the peptide exchange yield was 10 to 20%. Consider KSKQVITLL, for which the peptide exchange yield was 10 to 20%.

For the molecule YPLQQTNVY, the peptide exchange yield was 10 to 20%.
